± gives the standard deviation of the averaged measurements.
Test: total protein half-life in vivo (active degradation + dilution); higher = more stable protein
[1] = E. coli NCM3722 delta-clpP delta-lon delta-hslV, growth: N-lim chemostat, doubling time 6 h
[2] = E. coli NCM3722 delta-clpP, growth: N-lim chemostat, doubling time 6 h
[3] = E. coli NCM3722 delta-hslV, growth: N-lim chemostat, doubling time 6 h
[4] = E. coli NCM3722 delta-lon, growth: N-lim chemostat, doubling time 6 h
[5] = E. coli NCM3722 delta-smpB, growth: N-lim chemostat, doubling time 6 h
[6] = wild type E. coli NCM3722, growth: C-lim chemostat, doubling time 3 h
[7] = wild type E. coli NCM3722, growth: C-lim chemostat, doubling time 6 h
[8] = wild type E. coli NCM3722, growth: C-lim chemostat, doubling time 12 h
[9] = wild type E. coli NCM3722, growth: N-lim chemostat, doubling time 6 h
[10] = wild type E. coli NCM3722, growth: N-lim chemostat, doubling time 12 h
[11] = wild type E. coli NCM3722, growth: P-lim chemostat, doubling time 6 h
[12] = wild type E. coli NCM3722, growth: P-lim chemostat, doubling time 12 h

| Sequence | total protein half-life in vivo [1] [h] | total protein half-life in vivo [2] [h] | total protein half-life in vivo [3] [h] | total protein half-life in vivo [4] [h] | total protein half-life in vivo [5] [h] | total protein half-life in vivo [6] [h] | total protein half-life in vivo [7] [h] | total protein half-life in vivo [8] [h] | total protein half-life in vivo [9] [h] | total protein half-life in vivo [10] [h] | total protein half-life in vivo [11] [h] | total protein half-life in vivo [12] [h] |
| --- | --- | --- | --- | --- | --- | --- | --- | --- | --- | --- | --- | --- |
| MSTSDDIHNTTATGKCPFHQGGHDQSAGAGTTTRDWWPNQLRVDLLNQHSNRSNPLGEDFDYRKEFSKLDYYGLKKDLKALLTESQPWWPADWGSYAGLFIRMAWHGAGTYRSIDGRGGAGRGQQRFAPLNSWPDNVSLDKARRLLWPIKQKYGQKISWADLFILAGNVALENSGFRTFGFGAGREDVWEPDLDVNWGDEKAWLTHRHPEALAKAPLGATEMGLIYVNPEGPDHSGEPLSAAAAIRATFGNMGMNDEETVALIAGGHTLGKTHGAGPTSNVGPDPEAAPIEEQGLGWASTYGSGVGADAITSGLEVVWTQTPTQWSNYFFENLFKYEWVQTRSPAGAIQFEAVDAPEIIPDPFDPSKKRKPTMLVTDLTLRFDPEFEKISRRFLNDPQAFNEAFARAWFKLTHRDMGPKSRYIGPEVPKEDLIWQDPLPQPIYNPTEQDIIDLKFAIADSGLSVSELVSVAWASASTFRGGDKRGGANGARLALMPQRDWDVNAAAVRALPVLEKIQKESGKASLADIIVLAGVVGVEKAASAAGLSIHVPFAPGRVDARQDQTDIEMFELLEPIADGFRNYRARLDVSTTESLLIDKAQQLTLTAPEMTALVGGMRVLGANFDGSKNGVFTDRVGVLSNDFFVNLLDMRYEWKATDESKELFEGRDRETGEVKFTASRADLVFGSNSVLRAVAEVYASSDAHEKFVKDFVAAWVKVMNLDRFDLL | 4.4 ± 0.59 | 4.3 ± 0.3 | 3.14 ± 0.31 | 3.31 ± 0.44 | 3.68 ± 0.21 | 3.116 ± 0.024 | 5.85 ± 0.14 | 11.8 ± 0.71 | 3.11 ± 0.44 | 3.44 ± 0.15 | 5.34 ± 0.14 | 8.87 ± 0.34 |
| MAQEYTVEQLNHGRKVYDFMRWDYWAFGISGLLLIAAIVIMGVRGFNWGLDFTGGTVIEITLEKPAEIDVMRDALQKAGFEEPMLQNFGSSHDIMVRMPPAEGETGGQVLGSQVLKVINESTNQNAAVKRIEFVGPSVGADLAQTGAMALMAALLSILVYVGFRFEWRLAAGVVIALAHDVIITLGILSLFHIEIDLTIVASLMSVIGYSLNDSIVVSDRIRENFRKIRRGTPYEIFNVSLTQTLHRTLITSGTTLMVILMLYLFGGPVLEGFSLTMLIGVSIGTASSIYVASALALKLGMKREHMLQQKVEKEGADQPSILP [P0AG93] | – | – | 6.16 | 5.2883 ± 0.0031 | – | 3.4 ± 0.44 | 5.67 ± 0.76 | 8.4 ± 5.1 | – | 10.2 ± 0.42 | 6.06 ± 1 | – |
| MMDNMQTEAQPTRTRILNAAREIFSENGFHSASMKAICKSCAISPGTLYHHFISKEALIQAIILQDQERALARFREPIEGIHFVDYMVESIVSLTHEAFGQRALVVEIMAEGMRNPQVAAMLKNKHMTITEFVAQRMRDAQQKGEISPDINTAMTSRLLLDLTYGVLADIEAEDLAREASFAQGLRAMIGGILTAS [P0ACT6] | 6.37 ± 1.1 | 5.2 ± 0.53 | 4.39 ± 0.71 | – | 5.56 ± 0.51 | 3.36 ± 0.77 | 6.053 ± 0.026 | – | 4.87 ± 0.49 | 9.35 ± 0.28 | 4.64 ± 0.12 | 10.3 ± 0.2 |
| MGNRTKEDELYREMCRVVGKVVLEMRDLGQEPKHIVIAGVLRTALANKRIQRSELEKQAMETVINALVK [P0ACX5] | – | – | 3.93 | – | – | > 4 | 4.79 | – | – | 15.3 | 5.05 ± 1.9 | 12.6 ± 1.2 |
| MSEQFLYFLQQMFNGVTLGSTYALIAIGYTMVYGIIGMINFAHGEVYMIGSYVSFMIIAALMMMGIDTGWLLVAAGFVGAIVIASAYGWSIERVAYRPVRNSKRLIALISAIGMSIFLQNYVSLTEGSRDVALPSLFNGQWVVGHSENFSASITTMQAVIWIVTFLAMLALTIFIRYSRMGRACRACAEDLKMASLLGINTDRVIALTFVIGAAMAAVAGVLLGQFYGVINPYIGFMAGMKAFTAAVLGGIGSIPGAMIGGLILGIAEALSSAYLSTEYKDVVSFALLILVLLVMPTGILGRPEVEKV [P0AEX7] | 6.2 | – | > 8 | – | 6.44 ± 0.19 | 2.75 ± 0.53 | – | – | > 8 | – | – | > 16 |
| MNDRDFMRYSRQILLDDIALDGQQKLLDSQVLIIGLGGLGTPAALYLAGAGVGTLVLADDDDVHLSNLQRQILFTTEDIDRPKSQVSQQRLTQLNPDIQLTALQQRLTGEALKDAVARADVVLDCTDNMATRQEINAACVALNTPLITASAVGFGGQLMVLTPPWEQGCYRCLWPDNQEPERNCRTAGVVGPVVGVMGTLQALEAIKLLSGIETPAGELRLFDGKSSQWRSLALRRASGCPVCGGSNADPV | 4.92 ± 0.58 | 3.65 ± 0.013 | 3.8 ± 0.15 | 5.12 ± 0.89 | 2.97 ± 0.83 | 2.37 ± 0.41 | 4.03 ± 0.18 | 8.83 ± 2.4 | 3.24 ± 0.079 | 8.28 ± 6.9 | 4.26 ± 0.46 | 7.08 ± 0.84 |
| MIKRTLLAAAIFSALPAYAGLTSITAGYDFTDYSGDHGNRNLAYAELVAKVENATLLFNLSQGRRDYETEHFNATRGQGAVWYKWNNWLTTRTGIAFADNTPVFARQDFRQDINLALLPKTLFTTGYRYTKYYDDVEVDAWQGGVSLYTGPVITSYRYTHYDSSDAGGSYSNMISVRLNDPRGTGYTQLWLSRGTGAYTYDWTPETRYGSMKSVSLQRIQPLTEQLNLGLTAGKVWYDTPTDDFNGLQLAARLTWKF | – | – | – | – | > 8 | – | – | 15.4 | – | – | – | – |
| MNKSMLAGIGIGVAAALGVAAVASLNVFERGPQYAQVVSATPIKETVKTPRQECRNVTVTHRRPVQDENRITGSVLGAVAGGVIGHQFGGGRGKDVATVVGALGGGYAGNQIQGSLQESDTYTTTQQRCKTVYDKSEKMLGYDVTYKIGDQQGKIRMDRDPGTQIPLDSNGQLILNNKV [P0AB35] | 0.776 ± 0.14 | 0.716 | – | – | 0.623 | 0.834 | – | – | 0.945 | – | 0.416 | 1.21 |

Source: the supplement of paper PMC11246515
